These results are taken from patent publication US20070054851A1.

In test [1] the target is ErbB1 receptor (EGF receptor) on HeLa 229 cells (UniProt P00533). Description: cell-based or functional assay.
The target of test [2] is ErbB1 receptor (UniProt P00533). Briefly: cell-based or functional assay.

Sequence of PEGylated betacellulin produced using the mPEG-ButyrALD-20K reagent (P35070 other isoform, or with tags, fused parts or gaps limits assumed): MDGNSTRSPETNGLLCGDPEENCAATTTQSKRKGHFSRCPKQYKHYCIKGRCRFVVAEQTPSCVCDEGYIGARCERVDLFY
Sequence of PEGylated betacellulin produced using the mPEG-SMB-20K reagent (P35070 other isoform, or with tags, fused parts or gaps limits assumed): as above
Sequence of UniProt P35070 (P35070 other isoform, or with tags, fused parts or gaps limits assumed): as above

For the substance “Unreacted (row label under 'PEGylation chemistry'; taken as the unreacted betacellulin fraction from the S70 size exclusion column) (from UniProt P35070 32-111) (ligand)”, in test [1], the ELISA activity is equivalent to [BTC] nM (phospho-EGFR pY1068 ELISA, HeLa cells; SEC column S70; 40 nM submitted to assay) worked out at 0 nM and the activity % (phospho-EGFR pY1068 ELISA, HeLa cells; SEC column S70; 40 nM submitted to assay) is 0%.
The substance “PEGylated betacellulin produced using the mPEG-ButyrALD-20K reagent (from UniProt P35070 32-111) (ligand)” returned an activity in phospho-EGFR pY1068 ELISA on HeLa 229 cells, against unreacted betacellulin in test [2] (scale: % reduction against unreacted betacellulin) of less than 50. Moreover, in test [1], the activity % (phospho-EGFR pY1068 ELISA, HeLa cells; SEC column S70; 40 nM submitted to assay) came to 58% and the activity % (phospho-EGFR pY1068 ELISA, HeLa cells; SEC column S200; 40 nM submitted to assay) is 55%.
As for “PEGylated betacellulin produced using the mPEG-SMB-20K reagent (from UniProt P35070 32-111) (ligand)”, in test [2], the activity in phospho-EGFR pY1068 ELISA on HeLa 229 cells, against unreacted betacellulin (fold lower than unreacted betacellulin) came to 3. Moreover, in test [1], the ELISA activity is equivalent to [BTC] nM (phospho-EGFR pY1068 ELISA, HeLa cells; SEC column S200; 40 nM submitted to assay) was 14 nM; the activity % (phospho-EGFR pY1068 ELISA, HeLa cells; SEC column S70; 40 nM submitted to assay) worked out at 26%; the activity % (phospho-EGFR pY1068 ELISA, HeLa cells; SEC column S200; 40 nM submitted to assay) came out at 34%.
